The values that follow come from patent publication EP1902729A1.

In the assay the target is HIF2α protein. The assay is described as follows: cell-based or functional assay.

On to “Int6-ΔC (mutant in which the Int6 PINT (PCI) domain has been deleted)”, for which the expression and transcriptional activity of HIF2α is 2 fold.
